# In paper PMC7378745:
# Experiments:
# Assay in all cases: Tox-Luc (ToxR-TM-MBP) TM domain dimerisation assay in E. coli, luciferase read-out
# [1] = molecular target: YT/LL mutated human CD28 TM domain in the ToxLuc construct (ToxR-TM-MBP); settings: parent: est. 23000; read off a plot
# [2] = molecular target: mutant GpA (G83I) TM domain in the ToxLuc construct (ToxR-TM-MBP); settings: parent: est. 5500; read off a plot
# [3] = molecular target: Y145L/T150L (YT/LL) mutated mouse CD28 TM domain in the ToxLuc construct (ToxR-TM-MBP); settings: read off a plot
substance,measurement,setting,value
WT human CD28 TM domain in the ToxLuc construct (ToxR-TM-MBP) YT/LL,response (Relative Light units),[1],2900
wild type (WT) GpA TM domain in the ToxLuc construct (ToxR-TM-MBP) G83I,response (Relative Light units),[2],700
WT mouse CD28 TM domain in the ToxLuc construct (ToxR-TM-MBP) Y145L; T150L,response (Relative Light units),[3]; parent: est. 2500,270
same,response (Relative Light units),[3]; parent: est. 19000,3100
